These results are taken from patent US20110236385A1 (GOVERNMENT OF THE UNITED STATES OF AMERICA AS REPRESENTED …, published 2011).

Numbering of substitutions follows the chain as printed. Names may count otherwise. Ends that are not written are not given here.

Assay [1] has as its target T1, soluble CA125 in OVCAR-3 supernatant (human, UniProt Q8WXI7 1-14439, limits assumed, heavily glycosylated with O-linked and N-linked oligosaccharides).
T1 construct: Not purified: used as OVCAR-3 culture supernatant, detected with the anti-CA125 mAb OC125; also called MUC16; OVCAR-3 supernatant containing CA125
Description: Western blot overlay with OVCAR-3 supernatant, OC125 detection. The method, then: FIGS. 4A-B. Western blots of mesothelin fragments and alanine mutants. Each protein (500 ng) was run on an SDS-PAGE gel and transferred to a PVDF membrane. Membrane was blotted with OVCAR-3 supernatant containing CA125 followed by OC125 (anti-CA125 mAb).
Western blots—Purified Fc mesothelin fragments (500 ng) were mixed with Laemmli Sample Buffer (Biorad) supplemented with 5% B-Mercaptoethanol. Samples were boiled for 2 min and separated on 4-20% SDS-PAGE gels (Invitrogen). After transfer for 4 h at 30V, the PVDF membrane was blocked overnight at 4° C. in 1% Western Blocking Reagent (Roche) in Tris buffered saline (50 mM Tris-HCl, 150 mM NaCl). The membrane was then incubated with OVCAR-3 supernatant+0.5% blocking solution for 1 h at RT. This was followed by incubation with 1:200 dilution of OC125 mAb for 1 h at RT. Detection was performed with goat anti-mouse IgG-HRP conjugate (Biosource) 1:1000 for 1 h.

Assay [2] has as its target T2, CA125 on the cell surface of OVCAR-3 or YOU cells (human, UniProt Q8WXI7 1-14507, heavily glycosylated with O-linked and N-linked oligosaccharides).
T2 construct: whole, on cells; also called MUC16; human CA125
Description: flow cytometry on OVCAR-3 cells, FULL set to 100%. As for the experimental part:
FIGS. 6A-B. Binding of truncated mutants and alanine mutants to CA125 on the cell surface of OVCAR-3 cells. A. OVCAR-3 ovarian cancer cells were incubated with full-length extracellular domain of mesothelin (FULL), Region I, IAB or IBC. The binding was visualized with a goat anti-rabbit IgG PE-conjugated secondary antibody by flow cytometry (gray line). Light gray shaded plot: secondary antibody only. B. A fluorescence intensity (geometrical mean) was used to quantitatively measure the CA125 binding. In each experiment, the binding of the full-length mature form of mesothelin (FULL) to CA125 was determined as 100% of binding. The secondary antibody only was used as a negative (0%) control.
(§1) Flow cytometry—To determine binding of mesothelin fragments to CA125 on the cell surface, OVCAR-3 or YOU cells were grown until confluent, detached, and then incubated with 1 μg/mL of mesothelin or its fragments in FACS buffer (5% BSA, 0.01% NaN₃) for 1 h on ice. Bound fragments were detected by incubating with a 1:200 dilution of Goat anti-Rabbit IgG-PE (Biosource) secondary antibody in FACS buffer for 0.5 h on ice. Cells were analyzed using FACSCalibur (BD Biosciences). Each binding experiment was repeated three to five times.
Cell binding assays by flow cytometry—To assess binding to CA125 on cancer cells, wild-type mesothelin and its mutants were incubated with cells. […]

Assay [3] addresses T1, soluble CA125 in OVCAR-3 supernatant. In words: sandwich ELISA, captured rFc fusion, OVCAR-3 supernatant, OC125 detection. As for the experimental part:
(§2) Sandwich ELISA—Nunc MaxiSorp 96 well flat-bottomed plates were incubated overnight with 5 μg/mL, goat anti-rabbit IgG (Jackson ImmunoResearch Laboratories) in PBS, followed by an overnight block with 5% BSA, 0.01% NaN₃ in PBS. Purified Fc mesothelin fragments were diluted to 1 μg/mL in ELISA buffer (0.01% Tween 20, 10% Pierce SuperBlock) and incubated on plate for 1 h at room temperature (RT). Plates were then incubated with OVCAR-3 supernatant containing CA125 for 1 h at RT. To detect bound CA125 a 1:200 dilution of anti-CA125 OC125 mAb (Zymed) was incubated for an additional hour at RT; subsequently a 1:1500 dilution of goat anti-mouse IgG HRP conjugate (Biosource) was added for 1 h at RT. The plates were washed four times with ELISA buffer between each coating.
(§3) Kinetic studies by ELISA—To precisely characterize the interaction between CA125 and mesothelin and to determine a binding affinity (KD) for each mesothelin fragment, we used a quantitative ELISA-based assay. ELISA plates were coated with a goat anti-rabbit IgG antibody overnight for capturing the Fc mesothelin mutant fusion proteins. OVCAR-3 supernatant containing soluble CA125 was then added, followed by the OC125 mAb. Overall results from the ELISA were consistent with those seen in the Western blot overlay assays except for the E324A mutant of mesothelin (FIG. 5).

Assay [4] has as its target T2, CA125 on the cell surface of OVCAR-3 or …. In words: flow cytometry on YOU cells, FULL set to 100%. The method, then:
FIGS. 7A-B. Binding of truncated mutants and alanine mutants to CA125 on the cell surface of YOU cells. A. YOU mesothelioma cells were incubated with full-length extracellular domain of mesothelin (FULL) or a mutant of mesothelin. The binding was visualized with a goat anti-rabbit IgG PE-conjugated secondary antibody by flow cytometry (gray line). Light gray shaded plot: secondary antibody only. B. A mean fluorescence intensity (geometrical mean) was used to quantitatively measure the CA125 binding on YOU cells. In each experiment, the binding of the full-length mesothelin (FULL) to CA125 was determined as 100% of binding. The secondary antibody only was used as a negative (0%) control.
as §1

Assay [5] addresses T1, soluble CA125 in OVCAR-3 supernatant. Description: sandwich ELISA; average KD told of three proteins. The method, then: (§4) Scatchard plots (top left corner) were made. ELISA plates captured the Fc mesothelin mutant fusion proteins at various concentrations (x axis; see Experimental Procedures). OVCAR-3 supernatant containing soluble CA125 was then added, followed by the OC125 mAb and a goat anti-mouse IgG HRP.
as §2
Kinetic studies by ELISA—To precisely characterize the interaction between CA125 and mesothelin and to determine a binding affinity (KD) for each mesothelin fragment, we used a quantitative ELISA-based assay. ELISA plates were coated with a goat anti-rabbit IgG antibody overnight for capturing the Fc mesothelin mutant fusion proteins. […]

The target is the same in assay [6]. Description: sandwich ELISA, captured rFc fusion at various concentrations, OVCAR-3 supernatant, OC125 detection; nonlinear regression/Scatchard. As for the experimental part:
as §4, §2, §3

Assay [7] addresses soluble CA125 in OVCAR-3 supernatant (human) (UniProt Q8WXI7). The assay is described as above.
In assay [8] the target is CA125 on the cell surface of OVCAR-3 or YOU cells (human) (UniProt Q8WXI7). In words: cell-based or functional assay.
Assay [9] concerns the target soluble CA125 in OVCAR-3 supernatant (human) (UniProt Q8WXI7). In words: sandwich ELISA; average KD told of three proteins.

B1: mesothelin Region IA (296-337) rabbit IgG Fc fusion protein, rFc at the C-terminus (Fc fusion)
chain: EVEKTACPSGKKAREIDESLIFYKKWELEACVDAALLATQMD
notes: not shown: junction between fragment and rFc, and any tags, not described for this construct; rabbit IgG Fc (rFc)
For the molecule B1, the binding result in [1] is listed as “no binding (tested: 500 ng)”.

B2: mesothelin Region IB (328-369) rabbit IgG Fc fusion protein (Fc fusion, not shown: a dimerising Fc or GST; small tags and cut ends)
chain: DAALLATQMDRVNAIPFTYEQLDVLKHKLDELYPQGYPESVI
modifications: also: fusion with rabbit IgG Fc, thrombin site with flexible linker, myc epitope (no letters given)
For B2, the “CA125-binding activity relative to FULL” value in assay [2] is ~10%. Further, the binding result in assay [3] is “no binding”. For the same molecule, the “binding activity relative to FULL” value in [4] was ~10%.

B3: mesothelin Region I (296-390) rabbit IgG Fc fusion protein (Fc fusion, not shown: a dimerising Fc or GST; small tags and cut ends)
chain: EVEKTACPSGKKAREIDESLIFYKKWELEACVDAALLATQMDRVNAIPFTYEQLDVLKHKLDELYPQGYPESVIQHLGYLFLKMSPEDIRKWNVT
As to B3, the Kd in [5] is ~3 nM. The “CA125 binding activity relative to FULL” value in assay [4] was ~40%.

B4: mesothelin Region IBC (328-405) rabbit IgG Fc fusion protein (Fc fusion, not shown: a dimerising Fc or GST; small tags and cut ends)
chain: DAALLATQMDRVNAIPFTYEQLDVLKHKLDELYPQGYPESVIQHLGYLFLKMSPEDIRKWNVTSLETLKALLEVNKGH
Consider B4, for which, in assay [1], the binding result is “no binding (tested: 500 ng)”.

B5: mesothelin Region IAB (296-359) rabbit IgG Fc fusion protein (Fc fusion, not shown: a dimerising Fc or GST; small tags and cut ends)
chain: EVEKTACPSGKKAREIDESLIFYKKWELEACVDAALLATQMDRVNAIPFTYEQLDVLKHKLDEL
notes: also called Region IAB wild-type (wt)
As to B5, the “binding activity relative to FULL” value in assay [2] was ~90%. Besides, the Kd was ~3 nM in assay [5] and 3.35 nM in assay [6].

B6: H354A alanine mutant of mesothelin Region IAB (296-359), rabbit IgG Fc fusion protein (Fc fusion, not shown: a dimerising Fc or GST; small tags and cut ends)
chain: B5 chain with H59A
notes: Alanine mutant within Region IAB; also called H354A mutant of IAB
Molecule B6 displayed a Kd in assay [6] of 2.71 nM.

B7: Y318A alanine mutant of mesothelin Region IAB (296-359), rabbit IgG Fc fusion protein (Fc fusion, not shown: a dimerising Fc or GST; small tags and cut ends)
chain: B5 chain with Y23A
notes: Alanine mutant within Region IAB
As for B7, in assay [3], the binding result is listed as “no binding”.

B8: E324A alanine mutant of mesothelin Region IAB (296-359), rabbit IgG Fc fusion protein (Fc fusion, not shown: a dimerising Fc or GST; small tags and cut ends)
chain: B5 chain with E29A
notes: as for B7
Regarding B8, binding in assay [6] was put at a Kd of 42.4 nM.

B9: W321A alanine mutant of mesothelin Region IAB (296-359), rabbit IgG Fc fusion protein (Fc fusion, not shown: a dimerising Fc or GST; small tags and cut ends)
chain: B5 chain with W26A
notes: as for B7
The molecule B9 showed a Kd in assay [6] of 19.5 nM.

B10: mesothelin Region IC (360-405) rabbit IgG Fc fusion protein (Fc fusion, not shown: a dimerising Fc or GST; small tags and cut ends)
chain: YPQGYPESVIQHLGYLFLKMSPEDIRKWNVTSLETLKALLEVNKGH
modifications: also: fusion with rabbit IgG Fc, thrombin site with flexible linker, myc epitope (no letters given)
Take B10: in assay [3], the binding result is “no binding”.

B11: rabbit IgG Fc fusion of the full-length extracellular domain of mesothelin (296-581) (Fc fusion, part only; not given: rabbit Fc, linker, myc tag, not shown: a dimerising Fc or GST; small tags and cut ends)
chain (part 1 of 2), part: EVEKTACPSGKKAREIDESLIFYKKWELEACVDAALLATQMDRVNAIPFTYEQLDVLKHKLDELYPQGYPESVIQHLGYLFLKMSPEDIRKWNVTSLETLKALLEVNKGHEMSPQAPRRPLPQVATLIDRFVKGRGQLDKDTLDTLTAFYPGYLCSLSPEELSSVPPSSIWAVRPQDLDTCDPRQLDVLYPKARLAFQNMNGSEYFVKIQSFLGGAPTEDLKALSQQNVSMDLATFMKLRTDAVLPLTVAEVQKLLGPHVEGLKAEERHRPVRDWILRQRQDDLDT
chain (part 2 of 2), part: HHHHHH
Take B11: the Kd in [7] worked out at 1.54 nM; in [9] it was 3 nM. In assay [8], the adhesion of fluorescently labeled mesothelin-expressing H9 cells onto a YOU monolayer was determined as 1 µg/mL. Further, the adhesion of fluorescently labeled mesothelin-expressing H9 cells onto an OVCAR3 monolayer in [8] worked out at 10 µg/mL.
